This is an account of results in paper PMC4015550, “Immunopurification of adenomatous polyposis coli (APC) proteins” (BMC Research Notes, 2013).

As usually defined, the stoichiometry N is a count of units in the complex or per binding partner.

The series deals with the molecule itself. Description: not stated; data not shown; APC fragment of residues 1-61 said to form a dimer; no method or conditions told.

B1: APC-NT antigen (APC residues 1–61 with an N-terminal FLAG-tag) (domain or fragment, human, UniProt P25054 1-61, looked up)
chain: MAAASYDQLLKQVEALKMENSNLRQELEDNSNHLTKLETEASNMKEVLKQLQGSIEDEAMA
notes: adenomatous polyposis coli (APC), human, amino acids 1-61, the N-terminal oligomerisation (coiled-coil) region; also called N-terminal fragment of APC (residues 1–61); source: E. coli (pET30a+), purified (anti-FLAG M2 Sepharose, MonoQ anion exchange, reversed-phase HPLC)
As for B1, the “stoichiometry N” value stood at 2.
